Data published in publication PMC5318909, “Nucleobindin 1 binds to multiple types of pre-fibrillar amyloid and inhibits fibrillization” (Scientific Reports, 2017).

Assays:
[1] = molecular target: the molecule itself; experiment: atomic force microscopy; mtNUCB1 alone plated on freshly cleaved mica, imaged in air in tapping mode; volume analysis of particles
Aβ42 synthetic peptide = Aβ42 synthetic peptide (UniProt P05067 672-713); experiment: cell-based or functional assay

B1: Ca2+-free mutant variant of soluble nucleobindin 1 (mtNUCB1) (natural protein, human, UniProt Q02818 31-461, looked up)
chain: RGAPNKEETPATESPDTGLYYHRYLQEVIDVLETDGHFREKLQAANAEDIKSGKLSRELDFVSHHVRTKLDELKRQEVSRLRMLLKAKMDAEQDPNVQVDHLNLLKQFEHLDPQNQHTFEARDLELLIQTATRDLAQYDAAHHEEFKRYEMLKEHERRRYLESLGEEQRKEAERKLEEQQRRHREHPKVNVPGSQAQLKEVWEELDGLDPNRFNPKTFFILHKINSDGVLDEQALEALFTKELEKVYDPKNEEDDMREMEEERLRMREHVMKNVKTNQDRLVTLEAFLASTQRKEFGDTGEGWETVEMHPAYTEEELRRFEEELAAREAELNAKAQRLSQETEALGRSQGRLEAQKRELQQAVLHMEQRKQQQQQQQGHKAPAAHPEGQLKFHPDTDDVPVPAPAGDQKEVDTSEKKLLERLPEVEVPQHL
notes: His tag cleaved with PreScission protease; also called CLABP; source: E. coli BL21 (DE3), purified (Ni-NTA, Superdex200 SEC); not shown: His6, N-terminal, cleaved
Q: Which results are given for B1?
A: stoichiometry N [1]: 2; MTT viability of PC12 cells treated for 24 h with 100 nM Aβ42 and increasing doses of mtNUCB1: IC50 of protection (Aβ42 synthetic peptide): 1400 nM
